Measured values reported in PMC5827731.

Experiments:
[1] = target: SURF6-N (N-terminal segment of Surfeit locus protein 6, residues 1-182) (UniProt O75683)
[2] = target: NPM1^mutB2 (Lys and Arg to Ala in the B2-tract) (UniProt P06748)

Chain of UniProt O75683 (O75683 1-182): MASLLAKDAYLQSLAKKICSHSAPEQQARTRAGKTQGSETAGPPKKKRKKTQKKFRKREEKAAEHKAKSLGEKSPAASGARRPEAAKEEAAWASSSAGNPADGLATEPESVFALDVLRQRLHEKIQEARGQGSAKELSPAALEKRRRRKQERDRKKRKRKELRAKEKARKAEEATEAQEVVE

| threshold concentration for heterotypic LLPS with SURF6-N (turbidity, Fig. 2c) [1] | threshold SURF6-N concentration for heterotypic LLPS, NPM1 construct at 20 µM (turbidity) [2] | Substance |
| --- | --- | --- |
| 30 µM | – | NPM1^N188 (NPM1 truncation that lacks the CTD plus the B2-tract) (domain or fragment) |
| – | 60 µM | NPM1^mutB2 (Lys and Arg to Ala in the B2-tract) (from UniProt P06748 1-294) (natural protein) |
